The source of these data is article doi:10.1101/2020.07.11.198572.

For assay [1], the target named is EGFR-GFP (GFP-labelled epidermal growth factor receptor) in SW620-EGFR-GFP cells (human) (UniProt P00533).
For assay [2] the target is unchanged. The source holds these as a separate data set.

For the substance “EGF-TMR (epidermal growth factor conjugated to tetramethylrhodamine) (ligand)”, in assay [1], the percent of EGFR foci colocalized with EGF (3-60 min) was 40% and the percent of all tracked EGFR molecules in foci colocalized with EGF is 64%. Besides, in assay [2], the mean relative stoichiometry EGFR:EGF was 4.2 EGFR:EGF and the stoichiometry N was 1.9 EGFR:EGF.
